Measurements as given in IntAct's records for PubMed 25860027.

B1: Ras-related protein Rab-8A (Canis familiaris (dog)), P61007 (parent)
chain: MAKTYDYLFKLLLIGDSGVGKTCVLFRFSEDAFNSTFISTIGIDFKIRTIELDGKRIKLQIWDTAGQERFRTITTAYYRGAMGIMLVYDITNEKSFDNIRNWIRNIEEHASADVEKMILGNKCDVNDKRQVSKERGEKLALDYGIKFMETSAKANINVENAFFTLARDIKAKMDKKLEGNSPQGSNQGVKITPDQQKRSSFFRCVLL
partner: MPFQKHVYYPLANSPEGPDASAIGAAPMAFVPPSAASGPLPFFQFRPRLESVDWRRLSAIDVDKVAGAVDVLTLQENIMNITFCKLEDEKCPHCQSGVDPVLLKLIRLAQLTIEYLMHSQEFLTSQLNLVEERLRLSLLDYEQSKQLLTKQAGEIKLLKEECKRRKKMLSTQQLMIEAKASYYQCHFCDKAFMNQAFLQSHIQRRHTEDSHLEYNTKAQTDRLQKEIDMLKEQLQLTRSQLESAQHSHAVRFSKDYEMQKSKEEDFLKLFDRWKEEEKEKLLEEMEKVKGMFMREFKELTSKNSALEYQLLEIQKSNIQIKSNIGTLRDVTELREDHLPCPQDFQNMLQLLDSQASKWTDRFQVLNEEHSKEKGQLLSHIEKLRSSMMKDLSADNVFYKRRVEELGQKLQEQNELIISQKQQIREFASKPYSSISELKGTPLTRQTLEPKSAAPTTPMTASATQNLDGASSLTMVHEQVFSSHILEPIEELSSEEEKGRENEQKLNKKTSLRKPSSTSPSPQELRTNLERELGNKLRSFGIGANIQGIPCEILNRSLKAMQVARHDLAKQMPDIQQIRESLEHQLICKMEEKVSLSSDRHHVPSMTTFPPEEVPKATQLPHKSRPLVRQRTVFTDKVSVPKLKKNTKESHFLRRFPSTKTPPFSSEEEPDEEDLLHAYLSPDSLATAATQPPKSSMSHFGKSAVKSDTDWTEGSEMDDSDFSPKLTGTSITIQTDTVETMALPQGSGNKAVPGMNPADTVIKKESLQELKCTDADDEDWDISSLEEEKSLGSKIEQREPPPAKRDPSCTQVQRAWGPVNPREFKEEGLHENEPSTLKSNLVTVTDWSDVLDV
B2: Ras-related protein Rab-8A (Canis familiaris (dog)), P61007 (parent)
chain: B1 chain
partner: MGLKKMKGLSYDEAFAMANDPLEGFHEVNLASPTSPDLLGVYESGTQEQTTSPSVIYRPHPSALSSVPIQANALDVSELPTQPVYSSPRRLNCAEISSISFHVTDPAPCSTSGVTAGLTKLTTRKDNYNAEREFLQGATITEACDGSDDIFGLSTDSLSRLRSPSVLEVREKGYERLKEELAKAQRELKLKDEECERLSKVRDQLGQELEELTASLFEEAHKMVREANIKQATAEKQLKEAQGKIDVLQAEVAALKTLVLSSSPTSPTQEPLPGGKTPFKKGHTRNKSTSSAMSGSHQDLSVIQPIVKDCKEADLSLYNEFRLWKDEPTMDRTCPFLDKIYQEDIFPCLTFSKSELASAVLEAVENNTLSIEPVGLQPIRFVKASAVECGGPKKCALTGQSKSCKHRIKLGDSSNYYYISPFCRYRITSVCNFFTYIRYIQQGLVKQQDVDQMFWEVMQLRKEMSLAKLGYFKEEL

Variants of: B1
Details: with Dzip1, Q8BMD2-1

Variant	effect of a mutation on the interaction
Q67L	disrupting interaction strength
T22N	increasing interaction strength

Variants of: B2
Details: with rab3i_human RAB3IP

Variant	effect of a mutation on the interaction
T22N	increasing interaction strength
